Data as given in paper PMC10235760 (Frontiers in Immunology, 2023).

Biological target: T1, SARS-CoV-2 receptor binding domain, omicron subvariant BA5 (RBDBA5) (SARS-CoV-2, Omicron BA.5, strain)
T1 construct: also called Omicron BA5 RBD
Assay: SPR; Biacore T200, […]; 25°C, HBS-EP+ ([…], pH 7.4); 1:1 binding model; triplicate
Conditions: both partners purified

B1: antibody 10-40 with triple mutations (S32H heavy, R100bI heavy, Q53F light) (antibody, V domains shown)
VH: QLQLQESGPGLVKPSETLSLTCTVSGGSISSHNFYWGWIRQPPGKGLEWIASITYSGRTFYNPSLKSRVAISVDTSKNQFSLKLSSVTAADTAVYYCARTFPSYYDISGYHYLNYGMDVWGQGTTVTVSS
VL: NFMLTQPHSMSESPGKTVTISCTRSSGSIASNYVQWYQQRPGSSPTTVIYEDNFRPSGVPDRFSGSIDSSSNSASLTISGLKTEDEADYYCQSYDSSSWVFGGGTKLTVL
notes: also called combination of S32HH, R100bIH, and Q53FL
fold improvement of binding affinity over antibody 10-40: > 5000 fold
